# Results: US20210032342A1 (Merck Sharp & Dohme, published 2021)
# T1: human LAG-3 expressed by the CD4+ T-cell clone BC4-49 (human, UniProt P18627 23-525)
# T1 construct: whole, on cells
# T1 sequence (looked up): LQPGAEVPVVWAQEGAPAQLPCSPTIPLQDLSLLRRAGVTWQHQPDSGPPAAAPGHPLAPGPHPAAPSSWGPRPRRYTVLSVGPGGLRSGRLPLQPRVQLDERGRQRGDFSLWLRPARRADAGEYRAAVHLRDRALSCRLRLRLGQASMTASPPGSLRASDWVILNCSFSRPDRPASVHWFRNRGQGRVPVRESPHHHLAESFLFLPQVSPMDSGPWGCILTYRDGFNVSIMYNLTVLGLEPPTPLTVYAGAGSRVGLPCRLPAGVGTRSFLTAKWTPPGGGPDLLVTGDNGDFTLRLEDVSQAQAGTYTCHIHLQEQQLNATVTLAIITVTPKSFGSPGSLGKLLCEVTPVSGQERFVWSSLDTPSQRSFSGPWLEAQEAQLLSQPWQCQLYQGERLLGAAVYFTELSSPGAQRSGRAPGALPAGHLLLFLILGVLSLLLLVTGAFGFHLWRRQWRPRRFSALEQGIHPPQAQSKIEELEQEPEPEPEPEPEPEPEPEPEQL
# Key:
# [1] = target: human PD-1 expressed on cells (Jurkat.hPD-1.IL2luc clone DT999A1; CD4+ T cell clone BC4-49) (human, UniProt Q15116 25-288); test: cell-based or functional assay
# [2] = target: T1, human LAG-3 expressed by the CD4+ …; test: T-cell clone + JY.hPD-L1 co-culture (conclusion stated from IFNγ read-out)
# Experimental: The pellets were resuspended into single cell suspension in Yssel's medium. […] Fifty microliters of T cell suspension at a density of 4×10⁵ cells/mL was added into wells containing titrated antibodies. The antibody/T cell mixture was pre-incubated for 1 hour in an incubator at 37° C. with 5% CO₂. Human PD-L1 transgene expressing JY cells (JY.hPD-L1) were used in co-cultures to provide allo-specific antigens. […] The pellet was resuspended with Yssel's medium, and filtered with 40 μm cell strainer before plating. Fifty μL/well of JY.hPD-L1 suspension at a concentration of 2×10⁵ cells/mL was dispensed into pre-incubated antibody-T cells mixture, with T cell to JY.hPD-L1 cell ratio at 2:1. All conditions were run in duplicates. After approximately 3-day culture, 100 μL of supernatant per well was harvested for human IFNγ quantification. Human IFNγ ELISA was performed to assess IFNγ level on pooled supernatant from duplicates by using hIFNγ QUANTIKINE kit (R&D Systems, SIF50). Assays were run following the standard protocol provided by manufacturer. EC50 values were calculated using the [sequence] prism software.
# [3] = target: T2, polyhistidine-tagged human PD-1 (hPD1-His, 98AFK) (human, UniProt Q15116 25-167, limits assumed); test: SPR solution affinity; reference Humanized 08A IgG4 S61N (98AIO)
# T2 construct: also called human PD1-His; Human PD-1-His; not shown: polyhistidine tag
# Experimental: The titration series were incubated for 16-24 hours to reach equilibrium at room temperature. The unbound sites were measured using a BIAcore chip immobilized with antigen in a competition mode where SPR signal detected corresponded to unbound antibody.
# Free, unbound antibodies concentrations were measured as proportional to RU after 120 seconds (for 500 pM mAb series) or 400 seconds (for 100 pM mAb series) of injection at 10 μL/min.
# Data analyses were performed using KINEXA Pro Version 1.02 (Sapydyne) where RUs were normalized and plotted against concentrations.
# Sequence of human PD-1 expressed on cells (Jurkat.hPD-1.IL2luc clone DT999A1; CD4+ T cell clone BC4-49) (Q15116 25-288): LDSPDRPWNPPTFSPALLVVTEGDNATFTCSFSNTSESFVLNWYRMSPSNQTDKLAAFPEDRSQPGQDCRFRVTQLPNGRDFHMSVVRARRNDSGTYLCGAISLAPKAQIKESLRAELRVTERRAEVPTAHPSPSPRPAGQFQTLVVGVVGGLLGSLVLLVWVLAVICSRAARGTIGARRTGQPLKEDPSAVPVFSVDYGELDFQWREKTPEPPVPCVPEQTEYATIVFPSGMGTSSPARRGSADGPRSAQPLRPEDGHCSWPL
# T2 sequence (Q15116 25-167 limits assumed): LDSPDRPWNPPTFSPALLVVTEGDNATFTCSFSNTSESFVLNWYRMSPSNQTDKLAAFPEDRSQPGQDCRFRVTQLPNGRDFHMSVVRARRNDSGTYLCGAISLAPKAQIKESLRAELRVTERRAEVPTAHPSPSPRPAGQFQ
Binder,"AVG EC50, IL-2 luciferase reporter (Jurkat.hPD-1.IL2luc + THP-1.PD-L1 assay) [1]",binding result [2],KD (REF)/KD [3]
"Anti-PD-1/LAG3 bispecific antibody 90ASU (bispecific antibody, human IgG1, kappa, L234A L235A, also called Humanized x [PD-1_H]; [LAG3_H]; BsAb (hu08A S61N G56A arm / 22D2 arm) IgG1/Kappa) heavy 1: not shown light 1: DIVMTQTPLSLSVTPGQPASISCRASKSVSTSGFSYLHWYLQKPGQPPQLLIFLASNLESGVPDRFSGSGSGTDFTLKISRVEAEDVGVYYCQHSWELPLTFGQGTKLEIKRTVAAPSVFIFPPSDERLKSGTASVVCLLNNFYPREAKVQWKVDNALQSGNSQESVTEQDSKDSTYSLSSRLTLSKADYEKHKVYACEVTHQGLSSPVTKSFNRGEC heavy 2: QMQLVQSGPEVKKPGTSVKVSCKASGYTFTDYNVDWVRQARGQRLEWIGDINPNDGGTIYAQKFQERVTITVDKSTSTAYMELSSLRSEDTAVYYCARNYRWFGAMDHWGQGTTVTVSSASTKGPSVFPLAPSSKSTSGGTAALGCLVKDYFPEPVTVSWNSGALTSGVHTFPAVLQSSGLYKLSSVVTVPSSSLGTQTYICNVNHKPSNTKVDKKVEPKSCDKTHTCPPCPAPEAAGGPSVFLFPPKPKDTLMISRTPEVTCVVVSVSHEDPEVKFNWYVDGVEVHNAKTKPREEQYNSTYRVVSVLTVLHQDWLNGKEYKCKVSNKALPAPIEKTISKAKGQPREPQVYVLPPSRDELTKNQVSLLCLVKGFYPSDIAVEWESNGQPENNYLTWPPVLDSDGSFFLYSKLTVDKSRWQQGNVFSCSVMHEALHNHYTQKSLSLSPG light 2: DIVMTQTPLSLSVTPGQPASISCKASQSLDYEGDSDMNWYLQKPGQPPQLLIYGASNLESGVPDRFSGSGSGTDFTLKISRVEAEDVGVYYCQQSTEDPRTFGGGTKVEIKRTVAAPSVFIFPPSDEELKSGTATVVCLLNNFYPREAKVQWKVDNALQSGNSQESVTEQDSKDSTYSLSSYLELSKADYEKHKVYACEVTHQGLSSPVTKSFNRGEC",2.54 nM,binds,–
"Anti-PD-1/LAG3 bispecific antibody 33ARK (bispecific antibody, human IgG1, kappa, L234A L235A) heavy 1: EVQLVQSGAEVKKPGASVKVSCKASGYTFTSYYLYWVREAPGQGLEWIGGVNPSNGGTNFNEKFKSRVTLTVDTSISTAYMELSRLRSDDTAVYYCTRRDSNYDGGFDYWGQGTTVTVSSASTKGPSVFPLAPSSKSTSGGTAALGCEVTDYFPEPVTVSWNSGALTSGVHTFPAVLESSGLYSLSSVVTVPSSSLGTQTYICNVNHKPSNTKVDKKVEPKSCDKTHTCPPCPAPEAAGGPSVFLFPPKPKDTLMISRTPEVTCVVVSVSHEDPEVKFNWYVDGVEVHNAKTKPREEQYNSTYRVVSVLTVLHQDWLNGKEYKCKVSNKALPAPIEKTISKAKGQPREPQVYVLPPSRDELTKNQVSLLCLVKGFYPSDIAVEWESNGQPENNYLTWPPVLDSDGSFFLYSKLTVDKSRWQQGNVFSCSVMHEALHNHYTQKSLSLSPG light 1: DIVMTQTPLSLSVTPGQPASISCRASKSVSTSGFSYLHWYLRKPGQPPQLLIFLASNLESGVPDRFSGSGSGTDFTLKISRVEAEDVGVYYCQHSWELPLTFGQGTKLEIKRTVAAPSVFIFPPSDERLKSGTASVVCLLNNFYPREAKVQWKVDNALQSGNSKESVTEQDSKDSTYSLSSRLTLSKADYEKHKVYACEVTHQGLSSPVTKSFNRGEC heavy 2: not shown light 2: DIVMTQTPLSLSVTPGQPASISCKASQSLDYEGDSDMNWYLEKPGQPPQLLIYGASNLESGVPDRFSGSGSGTDFTLKISRVEAEDVGVYYCQQSTEDPRTFGGGTKVEIKRTVAAPSVFIFPPSDEELKSGTASVVCLLNNFYPREAKVQWKVDNALQSGNSEESVTEQDSKDSTYSLSSTLELSKADYEKHKVYACEVTHQGLSSPVTKSFNRGEC",3.12 nM,–,–
"Humanized x [PD-1_H] mAb (08A/HuPD1A-11 S61N CP-affinity matured Fab 100 (VH H3G9 (D100L N102H) G56A/VL L28D1) L234A L235A D265S) IgG1/Kappa (25AVE) (antibody, V domains shown, also called Humanized 08A IgG4 Fab 100 S61N G56A) VH: EVQLVQSGAEVKKPGASVKVSCKASGYTFTSYYLYWVRQAPGQGLEWIGGVNPSNAGTNFNEKFKSRVTLTVDTSISTAYMELSRLRSDDTAVYYCTRRLSHYDGGFDYWGQGTTVTVSS VL: DIVMTQTPLSLSVTPGQPASISCRASKSVSTSGFSYLHWYLQKPGQPPQLLIFLSKYRSSGVPDRFSGSGSGTDFTLKISRVEAEDVGVYYCSQAYHLPLTFGQGTKLEIKR",–,–,13

# Second part, the binder after the results:
"AVG EC50, IL-2 luciferase reporter (Jurkat.hPD-1.IL2luc + THP-1.PD-L1 assay) [1]",binding result [2],KD (REF)/KD [3],Binder
0.55 nM,–,–,"Anti-PD-1/LAG-3 bispecific antibody (BsAb) 18ASS (bispecific antibody, human IgG1, kappa, L234A L235A) heavy 1: not shown light 1: DIVMTQTPLSLSVTPGQPASISCRASKSVSTSGFSYLHWYLQKPGQPPQLLIFLSKYRSSGVPDRFSGSGSGTDFTLKISRVEAEDVGVYYCSQAYHLPLTFGQGTKLEIKRTVAAPSVFIFPPSDERLKSGTASVVCLLNNFYPREAKVQWKVDNALQSGNSQESVTEQDSKDSTYSLSSRLTLSKADYEKHKVYACEVTHQGLSSPVTKSFNRGEC heavy 2: QMQLVQSGPEVKKPGTSVKVSCKASGYTFTDYNVDWVRQARGQRLEWIGDINPNDGGTIYAQKFQERVTITVDKSTSTAYMELSSLRSEDTAVYYCARNYRWFGAMDHWGQGTTVTVSSASTKGPSVFPLAPSSKSTSGGTAALGCLVKDYFPEPVTVSWNSGALTSGVHTFPAVLQSSGLYKLSSVVTVPSSSLGTQTYICNVNHKPSNTKVDKKVEPKSCDKTHTCPPCPAPEAAGGPSVFLFPPKPKDTLMISRTPEVTCVVVSVSHEDPEVKFNWYVDGVEVHNAKTKPREEQYNSTYRVVSVLTVLHQDWLNGKEYKCKVSNKALPAPIEKTISKAKGQPREPQVYVLPPSRDELTKNQVSLLCLVKGFYPSDIAVEWESNGQPENNYLTWPPVLDSDGSFFLYSKLTVDKSRWQQGNVFSCSVMHEALHNHYTQKSLSLSPG light 2: DIVMTQTPLSLSVTPGQPASISCKASQSLDYEGDSDMNWYLQKPGQPPQLLIYGASNLESGVPDRFSGSGSGTDFTLKISRVEAEDVGVYYCQQSTEDPRTFGGGTKVEIKRTVAAPSVFIFPPSDEELKSGTATVVCLLNNFYPREAKVQWKVDNALQSGNSQESVTEQDSKDSTYSLSSYLELSKADYEKHKVYACEVTHQGLSSPVTKSFNRGEC"
3.32 nM,–,–,"Humanized x [PD-1_H] Fab (08A/HuPD1A-11 S61N WT) IgG4/Kappa (00APE) (Fab, V domains shown) VH: EVQLVQSGAEVKKPGASVKVSCKASGYTFTSYYLYWVRQAPGQGLEWIGGVNPSNGGTNFNEKFKSRVTLTVDTSISTAYMELSRLRSDDTAVYYCTRRDSNYDGGFDYWGQGTTVTVSS VL: DIVMTQTPLSLSVTPGQPASISCRASKSVSTSGFSYLHWYLQKPGQPPQLLIFLASNLESGVPDRFSGSGSGTDFTLKISRVEAEDVGVYYCQHSWELPLTFGQGTKLEIKR"
